Data reported in patent US20170129961A1 (Amgen, published 2017).
Residue numbers refer to the chain shown, from its start.

T1: human CD70 (human, UniProt P32970 1-193)
T1 construct: also called hu CD70; CD27L
T1 sequence: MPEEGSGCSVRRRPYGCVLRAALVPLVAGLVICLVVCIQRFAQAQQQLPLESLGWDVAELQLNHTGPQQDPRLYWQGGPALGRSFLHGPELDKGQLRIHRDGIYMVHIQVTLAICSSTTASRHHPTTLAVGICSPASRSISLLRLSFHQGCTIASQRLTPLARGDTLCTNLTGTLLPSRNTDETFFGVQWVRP

T2: full-length mouse CD70 with C-terminal V5 tag (mouse, UniProt O55237 1-195)
T2 construct: On transfected CHO cells; also called murine CD70
T2 sequence: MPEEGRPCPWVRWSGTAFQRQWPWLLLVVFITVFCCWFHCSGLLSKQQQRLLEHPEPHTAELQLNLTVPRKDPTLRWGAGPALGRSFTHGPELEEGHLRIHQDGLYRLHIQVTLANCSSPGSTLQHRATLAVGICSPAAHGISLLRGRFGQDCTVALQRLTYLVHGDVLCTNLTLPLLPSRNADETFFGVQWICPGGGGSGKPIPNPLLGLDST

B1: CD70-10 (scFv)
scFv: QVQLQESGPGLVKPSQTLSLTCTVSGDSIISGGYYWSWIRQHPGKCLEWIGYIFYSGSTDYNPSLKSRVTISVDTSKNQFSLKLSSVTAADTAVYYCARSGYSYALFDHWGQGTLVTVSSGGGGSGGGGSGGGGSDIQMTQSPSSLSASVGDRVTISCRASQFIGRYFNWYQQQPGKAPKVLIYAESSLQSGVPSRFSGSGSGTEFTLTISSLQPEDFARYYCQQSYSTPWTFGCGTKVEIK
notes: As m32
B2: CD70-5 (scFv)
scFv: B1 scFv with C46G, C235Q
notes: As m32
B3: CD70-6 (scFv)
scFv: B1 scFv with W231F
notes: As m32
B4: CD70-11 (scFv)
scFv: QVQLVESGGGVVQPGRSLRLSCAASGFTFSTYGMHWVRQAPGKCLEWVAVIWYDGSNKYYGDSVKGRFTISRDNSKNTLYLQMNSLRAEDTAVYYCARDNSHYYYGMDVWGQGTTVTVSSGGGGSGGGGSGGGGSQSVLTQPPSVSGAPGQRVTISCTGSSSNIGAGYDVNWYQQFPGTAPKLLIYVNNNRPSGVPDRFSGSTSGTSASLAITGLQAEDEADYYCQSYETSLSASVFGCGTRLTVL
notes: As m32
B5: CD70-4 (scFv)
scFv: QVQLVQSGAEVKKPGASVKVSCKASGYTFTSYGISWVRQAPGQGLEWMGWISAYNGYTHYAQKLQGRVTMTTDTSTSTAYMELRSLRSDDTAVYYCARDYGGNDYYGMDVWGQGTTVTVSSGGGGSGGGGSGGGGSQSVLTQPPSASGTPGQRVTISCSGSSSNIGINYVYWYQQLPGTAPKLLIYRSDQRPSGVPDRFSGSKSGTSASLALSGLRSEDEADYYCAAWDDSLSGVVFGGGTKLTVL
notes: As m32
B6: CD70-9 (scFv)
scFv: B5 scFv with G44C, G239C
notes: As m32
B7: CD70-13 (scFv)
scFv: EVQLLESGGGLVQPGGSLRLSCAASGFTFSSYAMSWVRQAPGKGLEWVSVISGSGGRPNYADSVKGRFTISRDNSKNTLYLQMNSLRDEDTAVYYCAKVDYSNYLFFDYWGQGTLVTVSSGGGGSGGGGSGGGGSEIVLTQSPGTLSLSPGEGATLSCRAGQSVRSSYLGWYQQKPGQAPRLLIYGASSRATGIPDRFSGSGSGTDFTLTISRLEPEDFAVYYCQQYGYSPPTFGGGTKLEIK
B8: CD70-3 (scFv)
scFv: QEQLVESGGGVVQPGRSLRLSCAASGFTFSSYGMHWVRQAPGKGLEWVAVTWYDGSNKYYGDSVKGRFTISRDNSKNTLYLQMNSLRAEDTAVYYCARDLLRGVKGYAMDVWGQGTTVTVSSGGGGSGGGGSGGGGSEIVLTQSPGTLSLSPGERATLSCRASQSLRRIYLAWYQQKPGQAPRLLIYDVFDRATGIPDRFSGGGSGTDFTLTISRLEPEDFAVYYCQQYSDSPFTFGPGTKVDIK
notes: As m32
B9: CD70-7 (scFv)
scFv: QVHLVQSGAEVKKPGASVRVSCKASGYTFTSYYLHWVRQAPGQCLEWMGIVDPSGGSTSYDQKFQGRFTMTRDTSTSTVYMELSSLRSEDTAVYYCARDYGDYVFDYWGQGTLVTVSSGGGGSGGGGSGGGGSQSVLTQPPSASGTPGQRVTISCSGSSSNIGTNTVNWYQQLPGTAPQLLIYINNQRPSGVPDRFSGSKSGTSASLAISGLQSEDEADYYCATWDDSLNGPVVGCGTKLTVL
notes: As m32
B10: CD70-1 (scFv)
scFv: QVQLVESGGGVVQPGRSLRLSCAASGFTFSTYGMHWVRQAPGKGLEWVAVIWYDGSNKYYGDSVKGRFTISRDNSKNTLYLQMNSLRAEDTAVYYCARDNSHYYYGMDVWGQGTTVTVSSGGGGSGGGGSGGGGSQSVLTQPPSVSGAPGQRVTISCTGSSSNIGAGYDVNWYQQFPGTAPKLLIYVNNNRPSGVPDRFSGSTSGTSASLAITGLQAEDEADYYCQSYDTSLSASVFGGGTRLTVLS
B11: CD70-2 (scFv)
scFv: QVQLVESGGGVVQPGRSLRLSCAASGFTFSSYGMHWVRQAPGKGLEWVAVIWYDGSDKYFADSVKGRFTISRDNSKNTLYLQMNSLRAEDTAVYYCARDGIAGARYVYFDYWGQGTLVTVSSGGGGSGGGGSGGGGSDIQMTQSPSSLSASVGDRVTITCRASQGISNYLAWFQQKPGKAPKSLIYAASSLQGGVPSKFSGSGSGTDFTLTISSLQPEDFATYYCQQYYNYPFTFGPGTTVDIK
B12: CD70-8 (scFv)
scFv: B11 scFv with G44C, P237C
B13: CD70-14 (scFv)
scFv: EVQLLESGGGLVQPGGSLKLSCAASGFTFSIYAMSWVRQAPGKGLEWVSAISGSGGSTFYADSVKGRFTISRDNSKNTLYLQMNSLRAEDTAVYYCAKHDYSNYPYFDYWGQGTLVTVSSGGGGSGGGGSGGGGSEIVLTQSPGTLSLSPGERATLSCRASQSVRSSYLAWYQQKPGQAPRLLIYGASSRATGIPDRFSGSGSGTDFTLTISRLEPEDFAVYYCQQYGDLPFTFGPGTKLEIK
notes: As m32
B14: CD70-18 (scFv)
scFv: EVQLLESGGGLVQPGGSLRLSCAASGFTFSSYAMSWVRQAPGKGLEWVSLISGSGGRTHYADSVKGRFTISRDNSKNTLYLQMNSLRAEDTAVYYCAKHDYSNYPYFDYWGQGTLVTVSSGGGGSGGGGSGGGGSEIVLTQSPGTLSLSPGERATLSCRASQSVRSTYLAWYQQKPGQAPRLLIYDASSRATGIPDRFSGSGSGTDFTLTISRLEPEDFAVYFCQQYGSSPPTFGGGTKLEIK
notes: As m32
B15: CD70-19 (scFv)
scFv: B13 scFv with K19R, I31T, Y80S
notes: As m32
B16: CD70-16 (scFv)
scFv: B13 scFv with L11M, K19R, I31S, S57R, K65E, V164I
notes: As m32
B17: CD70-12 (scFv)
scFv: QAQLVESGGGVVQPGRSLRLSCAASGFTFSYYGMHWVRQAPGKCLEWVAVIWYDGSNKYYADSVKGRFTISRDNSKNTLYLQMNSLRAEDTAVYYCARDREMGSRGDFDYWGQGTLVTVSSGGGGSGGGGSGGGGSDIQMTQSPSSLSASVGDRVTITCRASQGINNYLAWFQQKPGKAPKSLIYAVSILQSGVPSKFSGSGSGTDFTLTIGNLQPEDFATYYCQQYNFYPFSFGCGTKVDIK
notes: As m32

Each binder was assayed against T1, human CD70 (assay: FACS on CHO cells, periplasmic scFv).
Protocol: (§1) All antibodies were diluted in PBS/1.5% FCS. As negative control, cells were incubated with PBS/2% FCS instead of the periplasmic extract. The samples were measured by flow cytometry.
B1: binds. B2: binds. B3: binds. B4: binds. B5: binds. B6: binds. B7: binds. B8: binds. B9: binds. B10: binds. B11: binds. B12: binds. B13: binds. B14: binds. B15: binds. B16: binds. B17: binds.

These binders were tested against T2, full-length mouse CD70 with C-terminal … (assay: FACS on CHO cells, periplasmic scFv).
Protocol: as §1
B1: no binding. B2: no binding. B3: no binding. B4: no binding. B5: no binding. B6: no binding. B7: no binding. B8: no binding. B9: no binding. B10: no binding. B11: no binding. B12: no binding. B13: no binding. B14: no binding. B15: no binding. B16: no binding. B17: no binding.
